B1: TPR t1 (parent)
chain: GACCAAUCUGCCCUCAGAGCUCGAGAACAUCUUCGGAUGCAGAGGAGGCAGGCUUCGGUGGCGCGAUAGCGCCAACGUCCUCAACCUCCAAUGCAUCCCACCACAUGAUGAUGCCUGAAGAGCCUUGGUUUUUUG

Variants of B1 are the subject of the series. Put plainly: polymerase ribozyme fitness, log enrichment relative to wild type (log ratio); higher = more active; in vitro selection for triplet polymerase activity. The method in brief:
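Input and output libraries were sequenced on Illumina after a single in vitro selection round, run in triplicate on PCR-built, transcribed mutant libraries of each subunit of a heterodimeric triplet polymerase ribozyme. Selection annealed libraries to a biotinylated primer, the partner subunit and triplets, incubated them frozen at −7 °C, then gel-excised extended constructs for streptavidin-bead capture and RT-PCR. Genotypes with ≥10 input reads and ≥1 read per output were kept. Fitness is the logarithm, taken in base 2, of genotype enrichment divided by wild-type enrichment, using inverse-variance-weighted replicate averages.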
Turning to A6G C28U, the “polymerase ribozyme fitness (log ratio)” value is -0.918.
In the case of U7A C8A C40U C79G C102U G113C U129G U130A, the “polymerase ribozyme fitness (log ratio)” value is -7.42.
As to A6U U106C G107A C114U, the “polymerase ribozyme fitness (log ratio)” value is -5.44.
As to U7A A41G, the “polymerase ribozyme fitness (log ratio)” value is 0.181.
For the variant A6U C86U, the “polymerase ribozyme fitness (log ratio)” value is -0.389.
Turning to A6G C13U C72U C102U G122A, the “polymerase ribozyme fitness (log ratio)” value is -2.6.
As for A6U C12U G23C G63U G120U, the “polymerase ribozyme fitness (log ratio)” value was -7.69.
For the variant A6G C13U G51U C82U C94A A111G, the “polymerase ribozyme fitness (log ratio)” value was -3.66.
Regarding A6U G48U A105U, the “polymerase ribozyme fitness (log ratio)” value was -2.38.
As to U7A A29G A83C, the “polymerase ribozyme fitness (log ratio)” value was -0.648.
On to A6U A29U C34A G69U A90G A95U, for which the “polymerase ribozyme fitness (log ratio)” value is -2.59.
In the case of A6U G71U G110A G127U U133G, the “polymerase ribozyme fitness (log ratio)” value is -2.25.
For U7A C11G U55A, the “polymerase ribozyme fitness (log ratio)” value turned out to be 0.0928.
The result for A6U A24C C28A G47U G65C C102G G107A G120A G127U reads -6.59.
For A6U G36U G71A G122U C124A, the “polymerase ribozyme fitness (log ratio)” value is -1.43.
For A6U G47A C62A C123A, the “polymerase ribozyme fitness (log ratio)” value is -1.69.
A6U C8U: the “polymerase ribozyme fitness (log ratio)” value is 0.736.
As for A6U C8G, the figure is 0.868; as for A6U A121G, 2.04.
In the case of A6U G71C, the “polymerase ribozyme fitness (log ratio)” value is -0.895.
Consider A6U A41G U81A, for which the “polymerase ribozyme fitness (log ratio)” value was -1.63.
Regarding A6G C12A C80U G113U, the “polymerase ribozyme fitness (log ratio)” value was -3.95.
As for A6U G51C C56U, the “polymerase ribozyme fitness (log ratio)” value is -2.91.
For A6U C13A G36C C123U, the “polymerase ribozyme fitness (log ratio)” value is 0.00441.
With A6G A90U, the “polymerase ribozyme fitness (log ratio)” value was -0.939.
As for A6G U9C, the figure is 0.178; as for A6G G71A C82A A111U, -4.56.
Consider A6U A29G G71A A83G C89A U109C G120C C123G U132A, for which the “polymerase ribozyme fitness (log ratio)” value was -6.04.
Consider U7A C49U, for which the “polymerase ribozyme fitness (log ratio)” value came to 0.388.
As for A6U C13A A16U C49A G63A C101A, the figure is -4.21; as for A6U C12U C56U A95G, -0.128.
As for A6U C15G A37G, the “polymerase ribozyme fitness (log ratio)” value is -1.93.
As for A6U C8G C72U C86G, the figure is -0.629.
As for A6U A103G, the “polymerase ribozyme fitness (log ratio)” value was -4.63.
In the case of U7A C31U A111G, the “polymerase ribozyme fitness (log ratio)” value was -4.76.
As for A6U G57U G61A U87C C99A C124A, the figure is -5.7; as for U7A C12U A46U G58A, -0.311.
For A6U C62U, the “polymerase ribozyme fitness (log ratio)” value is 0.19.
As for A6G G69U C115A G120A, the “polymerase ribozyme fitness (log ratio)” value is 0.502.
The result for A6U G10A C15U A46C C53G G61U C79A C80U C115G A119G reads -4.07; that for A6U A27G C82U G110U, -2.67.
Take A6G C12U A50U U54G A100C: the “polymerase ribozyme fitness (log ratio)” value is -6.08.
On to A6U A46C C49G C82G C89U, for which the “polymerase ribozyme fitness (log ratio)” value is -2.2.
For U7A A29G G63U C98U, the “polymerase ribozyme fitness (log ratio)” value is -3.67.
With A6U C8A C12A A41U C79A C89A C94U C101U U116G C123U, the “polymerase ribozyme fitness (log ratio)” value was -6.77.
Turning to A6U A37U C101G C123A U125G U132A, the “polymerase ribozyme fitness (log ratio)” value was -2.11.
Regarding U7A A50U C82U A111C, the “polymerase ribozyme fitness (log ratio)” value was -1.72.
For the variant A6U C11G U55C, the “polymerase ribozyme fitness (log ratio)” value is -0.352.
Turning to A6G A83U, the “polymerase ribozyme fitness (log ratio)” value was -0.371.
As for A6G U7G G44U G58C G113A, the figure is -0.812; as for U7A C8A C11G G47U G57U C85A, -2.04.
In the case of A6G C12A A46U C53A C56A, the “polymerase ribozyme fitness (log ratio)” value was -1.28.
Take A6G C12A G23C A66G C114U G128A: the “polymerase ribozyme fitness (log ratio)” value is -5.09.
As for U7A C11A, the “polymerase ribozyme fitness (log ratio)” value is -0.042.
With A6G C13G G47A C56A C80U, the “polymerase ribozyme fitness (log ratio)” value is -2.43.
The result for U7A A37U U54G G127A G128U reads -3.62.
For A6U G39U C53G A68G U96G, the “polymerase ribozyme fitness (log ratio)” value was -7.34.
In the case of A6G C72U G93A, the “polymerase ribozyme fitness (log ratio)” value is -0.751.
Consider U7A C12G A27C G122A U130C, for which the “polymerase ribozyme fitness (log ratio)” value is -2.81.
For the variant U7A C12G A18U G45U U54G, the “polymerase ribozyme fitness (log ratio)” value was -3.04.
On to U7A A74G C85G, for which the “polymerase ribozyme fitness (log ratio)” value was -1.49.
For the variant A6G G36C C72U C80A U116A C123A, the “polymerase ribozyme fitness (log ratio)” value was -5.42.
Take A6U U38G U59C C86A: the “polymerase ribozyme fitness (log ratio)” value is -3.66.
For A6G C98G, the “polymerase ribozyme fitness (log ratio)” value is -6.34.
In the case of U7A C49U C53U U59A C70U C76A, the “polymerase ribozyme fitness (log ratio)” value is -2.44.
On to A6U C13U C72A, for which the “polymerase ribozyme fitness (log ratio)” value was 0.0717.
A6G G42U C73A C85U U106G G110U: the “polymerase ribozyme fitness (log ratio)” value is -5.96.
For the variant A6U G10C C34A U81A U112C G120C, the “polymerase ribozyme fitness (log ratio)” value is -3.64.
As to U7A C11G C12U A18C A29G G47U G60C, the “polymerase ribozyme fitness (log ratio)” value is -5.79.
Consider U7A A26U, for which the “polymerase ribozyme fitness (log ratio)” value is -2.56.
The result for A6U C124U U133G reads 0.942.
The result for A6U A16U reads -1.42.
Regarding A6G G58A U59C, the “polymerase ribozyme fitness (log ratio)” value is -1.72.
As for U7A, the “polymerase ribozyme fitness (log ratio)” value is 0.257.
U7A C11G G44U A50G C94U U96A G117A: the “polymerase ribozyme fitness (log ratio)” value is -1.92.
The result for A6U G47A C53U C56A U59A A83U reads -1.88; that for A6U G44U U87A A91C C97U, -1.94.
For A6U G77U U78C C86U G107C U112G, the “polymerase ribozyme fitness (log ratio)” value is -5.66.
Turning to A6U C56A, the “polymerase ribozyme fitness (log ratio)” value was -0.282.
As to A6U G17C A50C U87A, the “polymerase ribozyme fitness (log ratio)” value was -4.69.
Turning to U7A C40U G110A, the “polymerase ribozyme fitness (log ratio)” value was -1.33.
U7A C12A G35A C53U: the “polymerase ribozyme fitness (log ratio)” value was -5.51.
As for A6U U129A, the figure is -1.16.

The values are drawn from the RNAGym collection of RNA variant scans (doi:10.1073/pnas.2313332121).
